From publication PMC3702631 (Structure (London, England : 1993), 2013) come the findings set out here.

This data set deals with the molecule itself. Put plainly: SEC. For orientation: SEC sorts molecules by how far they enter the pores of the column.

B1: mouse TBK1 C-terminal truncation, residues 1-657 (GST tag cleaved) (domain or fragment, UniProt Q9WUN2 1-657, looked up)
chain: MQSTSNHLWLLSDILGQGATANVFRGRHKKTGDLYAVKVFNNISFLRPVDVQMREFEVLKKLNHKNIVKLFAIEEETTTRHKVLIMEFCPCGSLYTVLEEPSNAYGLPESEFLIVLRDVVGGMNHLRENGIVHRDIKPGNIMRVIGEDGQSVYKLTDFGAARELEDDEQFVSLYGTEEYLHPDMYERAVLRKDHQKKYGATVDLWSVGVTFYHAATGSLPFRPFEGPRRNKEVMYKIITGKPSGAISGVQKAENGPIDWSGDMPLSCSLSQGLQALLTPVLANILEADQEKCWGFDQFFAETSDVLHRMVIHVFSLQHMTAHKIYIHSYNTAAVFHELVYKQTKIVSSNQELIYEGRRLVLELGRLAQHFPKTTEENPIFVTSREQLNTVGLRYEKISLPKIHPRYDLDGDASMAKAVTGVVCYACRTASTLLLYQELMRKGVRWLVELVKDDYNETVHKKTEVVITLDFCIRNIEKTVKVYEKLMKVNLEAAELGEISDIHTKLLRLSSSQGTIESSLQDISSRLSPGGLLADTWAHQEGTHPRDRNVEKLQVLLNCITEIYYQFKKDKAERRLAYNEEQIHKFDKQKLYYHATKAMSHFSEECVRKYEAFKDKSEEWMRKMLHLRKQLLSLTNQCFDIEEEVSKYQDYTNELQET
In general, stoichiometry N refers to a count of units in the complex or per binding partner. Regarding B1, the “stoichiometry N” value amounted to 2.

B2: full-length mouse TBK1 (GST tag cleaved) (enzyme, UniProt Q9WUN2 1-729, looked up)
chain: MQSTSNHLWLLSDILGQGATANVFRGRHKKTGDLYAVKVFNNISFLRPVDVQMREFEVLKKLNHKNIVKLFAIEEETTTRHKVLIMEFCPCGSLYTVLEEPSNAYGLPESEFLIVLRDVVGGMNHLRENGIVHRDIKPGNIMRVIGEDGQSVYKLTDFGAARELEDDEQFVSLYGTEEYLHPDMYERAVLRKDHQKKYGATVDLWSVGVTFYHAATGSLPFRPFEGPRRNKEVMYKIITGKPSGAISGVQKAENGPIDWSGDMPLSCSLSQGLQALLTPVLANILEADQEKCWGFDQFFAETSDVLHRMVIHVFSLQHMTAHKIYIHSYNTAAVFHELVYKQTKIVSSNQELIYEGRRLVLELGRLAQHFPKTTEENPIFVTSREQLNTVGLRYEKISLPKIHPRYDLDGDASMAKAVTGVVCYACRTASTLLLYQELMRKGVRWLVELVKDDYNETVHKKTEVVITLDFCIRNIEKTVKVYEKLMKVNLEAAELGEISDIHTKLLRLSSSQGTIESSLQDISSRLSPGGLLADTWAHQEGTHPRDRNVEKLQVLLNCITEIYYQFKKDKAERRLAYNEEQIHKFDKQKLYYHATKAMSHFSEECVRKYEAFKDKSEEWMRKMLHLRKQLLSLTNQCFDIEEEVSKYQDYTNELQETLPQKMLAASGGVKHAMAPIYPSSNTLVEMTLGMKKLKEEMEGVVKELAENNHILERFGSLTMDGGLRNVDCL
In the case of B2, the “stoichiometry N” value came to 2.
